Biological target: GSK-3 fusion protein (kinase substrate, Nonradioactive AKT Kinase Assay Kit, Cell signaling 9840)

B1: BCAM-AKT2-FLAG (cloned from patient S4, expressed in OVCAR8 cells) (protein)
chain: EVRLSVPPLVEVMRGKSVILDYTPTGTHDHYMLEWFLTDRSGARPRLASAEMQGSELQVTMHDTRGRSPPYQLDSQGRLVLAEAQVGDERDYVCVVRAGAAGTAEATARLNVFAKPEATEVSPNKGTLSVMEDSAQEIATCNSRNGNPAPKITWYRNGQRLEVPVEMNPEGYMTSRTVREASGLLSLTSTLYLRLRKDDRDASFHCAAHYSLPEGRHGRLDSPTFHLTLHYPTEHVQFWVGSPSTPAGWVREGDTVQLLCRGDGSPSPEYTLFRLQDEQEEVLNVNLEGYLTLEGVTRGQSGTYGCRVEDYDAADDVQLSKTLELRVAYLDPLELNEGKVLSLPLNSSAVVNCSVHGLPTPALRWTKDSTPLGDGPMLSLSSITFDSNGTYVCEASLPTVPVLSRTQNFTLLVQGSPGLKTAEIEPKADGSWREGDEVTLICSARGHPDPKLSWSQLGGSPAEPIPGRQGWVSSSLTLKVTSALSRDGISCEASNPHGNKRHVFHFGTVSPQTSQAGVAVMAVAVSVGLLLLVVAVFYCVRRKGGPCCRQRREKGAPEEWMRAIQMVANSLKQRAPGEDPMDYKCGSPSDSSTTEEMEVAVSKARAKVTMNDFDYLKLLGKGTFGKVILVREKATGRYYAMKILRKEVIIAKDEVAHTVTESRVLQNTRHPFLTALKYAFQTHDRLCFVMEYANGGELFFHLSRERVFTEERARFYGAEIVSALEYLHSRDVVYRDIKLENLMLDKDGHIKITDFGLCKEGISDGATMKTFCGTPEYLAPEVLEDNDYGRAVDWWGLGVVMYEMMCGRLPFYNQDHERLFELILMEEIRFPRTLSPEAKSLLAGLLKKDPKQRLGGGPSDAKEVMEHRFFLSINWQDVVQKKLLPPFKPQVTSEVDTRYFDDEFTAQSITITPPDRYDSLGLLELDQRTHFPQFSYSASIRE
- phosphorylation of GSK-3 (in vitro kinase assay, western blot with anti-phospho-GSK-3): incubation with immunoprecipitated BCAM-AKT2 led to efficient phosphorylation of GSK-3

Reference: patent US20160340743
